This note sets out measurements from PMC12078792.

In test [1] the target is HIV-1 CA hexamer tubes, disulfide-stabilized CA hexamers (A14C/E45C) assembled into large molecular weight tubes. The test can be described thus: co-sedimentation with CA hexamer tubes. The following applies: read off a plot.
Test [2] has as its target HIV-1 CA hexamer tubes, disulfide-stabilized CA hexamers (A14C/E45C) assembled into large molecular weight tubes (HIV-1).
Test [3] concerns the target HIV-1 CA hexamer tubes, disulfide-stabilized CA hexamers (A14C/E45C) assembled into large molecular weight tubes. The test is described as follows: co-sedimentation with CA hexamer tubes. The settings on record: parent: est. 81; read off a plot.

Turning to “TRIM-NUP153C-HA with CbM.1 replaced by CbM.2 (∆1::2) (from UniProt Q0PF16;P49790) F1417A”, in test [1] (parent: est. 55), the response (% Bound NUP153c) amounted to 36.
In turn, “TRIM-NUP153C-HA with the mutation F1417A in CbM.1 (from UniProt Q0PF16 1-304; P49790 896-1475)” had a TRIM-NUP153c restriction assay: increase in HIV-GFP-positive cells in test [2] of 7 fold.
As to “TRIM-NUP153C-HA, TRIM domain of rhesus TRIM5α (1-304) fused to the HA-tagged human NUP153 C-terminal domain (896-1475), wild type (from UniProt Q0PF16 1-304; P49790 896-1475)”, the TRIM-NUP153c restriction assay: HIV-GFP-transduced GFP-positive cells relative to empty vector control (% relative to empty vector control) in test [2] is 18.5.
With “TRIM-NUP153C-HA, TRIM domain of rhesus TRIM5α (1-304) fused to the HA-tagged human NUP153 C-terminal domain (896-1475), wild type (from UniProt Q0PF16;P49790) ∆1::2 (CbM.1 replaced by CbM.2)”, the response (% Bound NUP153c) in test [1] (parent: est. 81) and in test [3] was 55 each time.
For the substance “TRIM-NUP153C-HA, TRIM domain of rhesus TRIM5α (1-304) fused to the HA-tagged human NUP153 C-terminal domain (896-1475), wild type (from UniProt Q0PF16;P49790) ∆1::3 (CbM.1 replaced by CbM.3)”, the response (% Bound NUP153c) in test [3] was 47.
Regarding “TRIM-NUP153C-HA, TRIM domain of rhesus TRIM5α (1-304) fused to the HA-tagged human NUP153 C-terminal domain (896-1475), wild type (from UniProt Q0PF16;P49790) ∆1::4 (CbM.1 replaced by CbM.4)”, the response (% Bound NUP153c) in test [3] stood at 51.
For “TRIM-NUP153C-HA, TRIM domain of rhesus TRIM5α (1-304) fused to the HA-tagged human NUP153 C-terminal domain (896-1475), wild type (from UniProt Q0PF16;P49790) ∆2::1 + ∆1::2 (CbM.1 and CbM.2 swapped)”, in test [1] (parent: est. 81), the response (% Bound NUP153c) is 97.
